These results are taken from the DeepSol protein solubility set.

The nature of this series: soluble on expression in E. coli; label from the status in PepcDB or PDB records.
Turning to “MNMQKLRIELGEETNDELYDLLLLADPSKDIVDEYLERGECYTAWAGDELAGVYVLLKTRPQTVEIVNIAVKESLQKKGFGKQLVLDAIEKAKKLGADTIEIGTGNSSIHQLSLYQKCGFRIQAIDHDFFLRHYDEDIFENGIQCRDMVRLYLDLLEHHHHHH”, the “soluble on expression in E. coli” value is reported as “soluble”.

“MSLSEKMRRIVEAAGGIVWRWKAGSDIANDPAIASSKSAQEQLDSIEVCIVHRPKYDDWSWPKGKLEQNETHRHAAVREIGEETGSPVKLGPYLCEVEYPLSEEGKKTRHSHDCTADTKHTLYWMAQPISADDAEHLLDAFGPVHRADVGEINDIVWVSVREARKILSHSTDKDTLAVFVDRVQEGAATAQNLLIVRHAKAESRKSWKGTDANRPITPKGAAMAFALNRELACFNPTRLATSPWLRCQETLQVLSWQTERPMEHINTLTEDAFAEHPAVSWLAFREQITQTLNSRETTAICMHRPVIGGMYDHLRGLCARKQLAKQLIAKSPYMPTGTAMSLFIIDTPQGPSIIDIQKVSPIVYEGHHHHHH”: the “soluble on expression in E. coli” value is recorded as “soluble”.

On to “PAKLGYWKIRGLQQPVRLLLEYLGEKYEEQIYERDDGEKWFSKKFELGLDLPNLPYYIDDKCKLTQSLAILRYIADKHGMIGTTSEERARVSMIEGAAVDLRQGISRISYQPKFEQLKEGYLKDLPTTMKMWSDFLGKNPYLRGTSVSHVDFMVYEALDAIRYLEPHCLDHFPNLQQFMSRIEALPSIKAYMESNRFIKWPLNGWHAQFGGGDAPP”, for which the “soluble on expression in E. coli” value was “soluble”.

For “MMTRKKELAIALSKLKGFKNPKVWLEQYRTPGNAASELLWLAYSLGDIEGKVVADLGAGTGVLSYGALLLGAKEVICVEVDKEAVDVLIENLGEFKGKFKVFIGDVSEFNSRVDIVIMNPPFGSQRKHADRPFLLKAFEISDVVYSIHLAKPEVRRFIEKFSWEHGFVVTHRLTTKIEIPLQFFFHRKKLERITVDIYRFSKVINSR”, the “soluble on expression in E. coli” value is recorded as “soluble”.

As for “MSLKYLVIGSNSFTGASMVSYLLDQGADVVGISRSDEPHPAFLPYRWKKADRFRFQKLDLNHDLDAIMQLVTAERFPCIINFAAQSMVGESWANPDHWFMTNVVSTVRLHERLRICDFLERYVHVTTPEVYGNATGTLTEDAVFDPSTPYAVSRAAGDMSLRSYFRAYGFPVLFTRAANVYGPGQRLYRIVPRTILFIKLGRKLQLHGGGTSERSFIHAADVADATRRIACNGKLGDSYHISTDRIVTIRALVEMICAMMRVRFEDQVEIVGERLGKDAAYKLDSSKLRSELGWSDQITLEQGIEQTIAWIDRWFEELKSQPFDYAHKEGHHHHHH”, the “soluble on expression in E. coli” value is “not soluble”.

As to “ESKLEGKAAQDIKDEEPGDLGRPKPECEGYDPNALYCICRQPHNNRFMICCDRCEEWFHGDCVGISEARGRLLERNGEDYICPNCTILQVQDETHSETADQQEAKWRPGDADGTDCTSIGTIEQKSSEDQGIKGRIEKAANPSGKKKLKIFQPGPGPVPTQLPVLWQVLEIAVSRSISAFTLLHCISCKVIEAPGASKCIGPGCCHVAQPDSVYCSNDCILKHAAATMKFLSSGKEQKPKPKEKMKMKPEKPSLPKCGAQAGIKISSVHKRPAPEKKETTVKKAVVVPARSEALGKEAACESSTPSWASDHNYNAVKPEKTAAPSPSLLYKSTKEDRRSEEKAAATAASKKTAPPGSTVGKQPAPRNLVPKKSSFANVAAATPAIKKPPSGFKGTIPKRPWLSATPSSGASAARQAGPAPAAATAASKKFPGSAALVGAVRKPVVPSVPMASPAPGRLGAMSAAPSQPNSQIRQNIRRSLKEILWKRVNDSDDLIMTENEVGKIALHIEKEMFNLFQVTDNRYKSKYRSIMFNLKDPKNQGLFHRVLREEISLAKLVRLKPEELVSKELSTWKERPARSVMESRTKLHNESKKTAPRQEAIPDLEDSPPVSDSEEQQESARAVPEKSTAPLLDVFSSMLKDTTSQHRAHLFDLNCKICTGQVPSAEDEPAPKKQKLSASVKKEDLKSKHDSSAPDPAPDSADEVMPEAVPEVASEPGLESASHPNVDRTYFPGPPGDGHPEPSPLEDLSPCPASCGSGVVTTVTVSGRDPRTAPSSSCTAVASAASRPDSTHMVEARQDVPKPVLTSVMVPKSILAKPSSSPDPRYLSVPPSPNISTSESRSPPEGDTTLFLSRLSTIWKGFINMQSVAKFVTKAYPVSGCFDYLSEDLPDTIHIGGRIAPKTVWDYVGKLKSSVSKELCLIRFHPATEEEEVAYISLYSYFSSRGRFGVVANNNRHVKDLYLIPLSAQDPVPSKLLPFEGPGKRRLSGWR”, the “soluble on expression in E. coli” value is given as “soluble”.

Take “MGSDKIHHHHHHMFKIDRLRFGTAGIPISTPKPSTIAGIERVRELGLDAMELEFVRGINIKPELAKKIKYVAEKNDIVLTAHAPYYINLNAKEKEKVEASKRRIIQSAERLYEAGGWSVVFHAGYYLKQPKESVYQKILSALKEIQKELMDKGIKVWLRPELTGKPTQFGDLKELVKLSQELELVLPAIDFAHAHARNKGKCNTEEEWREMLALIENELGREALDNMHIHISGIEYGEKGEKRHLNLEESDLKWEDLLKVLKEFRVKGVIISESPNIEGDAILMKKKWEELKI”: the “soluble on expression in E. coli” value is reported as “not soluble”.

In the case of “MTDVALSQDVSRFLRYLGVERQLSPITLLNYQRQLDAIIALAGETGLKSWQQCDAAIVRSFAVRSRRKGLGPASLALRLSALRSFFDWLVSQGELKANPAKGVSAPKAPRHLPKNIDVDDVNRLLDIDLNDPLAVRDRAMLEVMYGAGLRLSELVGLDIKHLDLDTGEVWVMGKGSKERRLPIGRNAVTWIEHWLDLRGLFASDEEALFLSKLGKRISARNVQKRFAEWGIKQGLNSHVHPHKLRHSFATHMLESSGDLRGVQELLGHANLSTTQIYTHLDFQHLASVYDAAHPRAKRGK”, the “soluble on expression in E. coli” value is listed as “not soluble”.

For the sequence “MGSDKIHHHHHHMPVQQLFYKTAVPVSAKRHGDLSISSGKTYAFARHTNSIPLTALEFGPAAGTHPIVFAGTGEDVVPAIIVGTREDENLAVDADGNWQGTYIPAFARRYPFIFSLDKDKNQFTLLVDEEFEGANRDGRGERLFDSEGEQTGYLKSVLKFLQDYQAGFARTQAFCKRLKELDLLVPMQAEFSLGAGQKRTLGGFQVVDREKLKALSGEVLADLCRKDELECIYLHLSSMRHFRQMLERANTEASEAEPETDAADVAEPMAET”, the “soluble on expression in E. coli” value is “not soluble”.

Consider “MGSDKIHHHHHHMRIAIDPFMHRHLSLEELPRKVRELGYDWIEMSPRADFLEWFKAPRVFPQRMKEFKKALAAENVKIASLLPMYRWASNDETERKAAVKHWKRAIEIAVEMEIDTMNSEFGRGPHPDKGSCYCCHTGSMIEACEDAWWRSMEELVPVFERENIQLNIEPHPEDWCETLQPALDIIRTVNSKNVKFLYCAPHTFYFGDDTKAMLREAKDVLAHVHVGDTFNHKASSGLRYILNPPGTQARVHQHLNIGQGEVPWDDFFGTLAEIGFDGTMTACVFAWEDRADHSGKFMLSEMNRYIEKYWPK”, for which the “soluble on expression in E. coli” value is reported as “not soluble”.

For the sequence “MGSDKIHHHHHHLLQRTFNIQHHSSLPLLSILSYFPTSLLKPGGRMAIVLPQGRFNNSSDKNIRDFIAERCRILAVVGLHGNTFKPHTGTKTSVLFVQKWNDDPKAGALCPRQDDYNIFFATMRKSGKDNSGDKIWRKISSSTASPPDDELSDLMPPSPVQRVVGVEGDFLRDNHEHLVVDHDLYNHEGKTEDGIAEAFIEFAKKENFSFFELSPSVTPFDAVKYQQLMDGLEAVEVSLNQALDHNLHFRFDSEFFKRIYFQVEAEIKALPHTRLSSTQPIIIHPTEIKREYVEDDSSGVLFFRTQNLRPLRVDLSNQVYISEEDAAKLSKNIIQKNDVLITITGANFGDTLIFKGEIEAIALSHVFILRNKKISQSFLAVFLNTFYGREQINKGMYGGV”, the “soluble on expression in E. coli” value was “not soluble”.

With “KYSLLEIGLKKDNGSSETIKLKREAIKFENNTVKSYIIKDAKKIGYISIPSFYSDDSNPNALGAANELSKEILKLKNENIEGLIIDLRNNGGGSLYEAVGMSGLFIDIGPLFYVLERSGKATLTKDMNRGTVYDGPLCIMVNGYSASASEIFSAAMQDNHRALIVGEQTYGKATGQSISQLDTTKSISTFSATDNMGATKITEIKLYRTSGFSYQGKGVTPDIILPYL”, the “soluble on expression in E. coli” value is recorded as “not soluble”.

Consider “MATFESSLKPRLIYVFAIADARHEGSLKIGETTLNDDVGSASTEPNSEVLNKAAKARIDQYTKTAGIGYELLYTELTIYFSGGRVCSFNDKQVHSVLERSGVKRKSFAGATEWYSCDLATVKRAISAIKEGKDSLGASEVTLSDNPIILRPEQKEAIERTLKQFRKGNKMLWNAKMRFGKTLCALRVAKEMEAVRTIIITHRPVVDASWFEDFGKTFYDRPEWHYGSRSKGESFASLEKLASQGKKCVYFASMQDMRGSKDVGGKFDKNNEVFSTSWDLVIVDEAHEGTQTELGKAVLGQLMGKDTKALHLSGTPYNLFDQHKEEEVFTWDYVMEQQAKIDWEINHLGDTNPYASLPAIHIYTYDLGRLISEYSDEEKAFNFREFFRTREDGSFVHEGDIDRFLSLLCREDEEALYPYSNEHFRQIFRHTLWILPGVRAAKALSKKLSKHPIFGLFKVANVAGDGDDEEEESRDALELVNQAIGKDPDETYTITLSCGRLTTGVSIKP”, for which the “soluble on expression in E. coli” value is reported as “not soluble”.

“MGSDKIHHHHHHMAGVMSRRLDVDALRALVAIERHGGVTRAAEILGLSQSAVSHKIRRLETSLDCEILTRKANAPMFTTAGQDLLGYARRILGIHDEAVLSLSKSPLQGKIALGMTEDTTCTDLSRILGRFRRLYPEVSVRTQVRMSLVLQEQLSQGALDAAIIQVFQHEVRPADILLFRETLHWVKSRDLVLSAGKPVPFLSFDENCFYRRWGIDVGQDEDTVLETVFECSSAAGIIAGVTAGLGVALLSQRYLQPAMEIVDDKFPKPPDLAYVIRRARVPRNPALETLVREIEAEVKRYGTLQIAV”: the “soluble on expression in E. coli” value is given as “not soluble”.

“MTFQKHVAHTQPAKLATTPSPPGTATTPSLMSEDDDHRTITESQEKRRSWLERLSAAFSGDPHTLDDLMVILRSAEHHGIIATDTLRMMEGAIAIADLTVGDVMVPRSQMVSLPVESDLQTITKQMVESGHSRFPVHGENKDEVLGILLAKDLLRGVSANHTITNVHELLRPVGMIPESKKLNVLLKEFRLSHNHMAIVVDEYGGVAGLVTIEDILEQIVGDIDDEHDETEDQTNMIAIQADGCYIVDALTPIEDFNERFNAEFPDDDYDTIGGLVTEAIGHLPETGDELTIGRFAFRVAKANARRIHILHVTVLPPNEQNTA”: the “soluble on expression in E. coli” value was “not soluble”.

Regarding “MTEKTIEFEGIEPVIIFGPYDSYLKKVREAFPDIRINARGAKITIGGDEPDLTAIEKIFREIIFLADQHGEVLENDVNALVSLALSPVSHPSAALSGDKDVIVETKDYVVKAKTDGQRRMVAEAAGNDIVFAIGPAGTGKTYTAVAIAVAAWKAKKIKRIVLARPAVEAGESLGFLPGDLAQKIDPYLRPLYDALQDMLTAEKLKFLTERRVIEIVPLAYMRGRTLNNSFIILDEAQNASSKQMMMCLTRLGVNSKAIITGDVTQVDLPKEMESGLMNAQKILKGIKGISFVFLDKSDVVRHRLVKDIINAYEHHEEGLRKGAPKEAEL”, the “soluble on expression in E. coli” value was “not soluble”.

Take “MSLKIAEAAARSGLSIDTIRFYERSGLLPPIARGADGMRRFSPETVDWLRLLASLRETGMELRAMRRFAELYRQGDATIPERRRILQDHAASLNGRRAALDRCAALLAHKLQRYCEIEGEGHHHHHH”: the “soluble on expression in E. coli” value is recorded as “not soluble”.

As for “MHRCGESSVAGTDARIRLEGNRLFVGGPVTYDNVVEVIRTGDAAIKADDMLIDLAGVTWVDSSAVSMLLEWMRTAQTYDRRIEFINLPSNLADLIELYDVGSLIPTDKPAESV”, the “soluble on expression in E. coli” value is “not soluble”.

For the sequence “MGSDKIHHHHHHMSHIIKIFPSNIEFSGREDESILDAALSAGIHLEHSCKAGDCGICESDLLAGEVVDSKGNIFGQGDKILTCCCKPKTALELNAHFFPELAGQTKKIVPCKVNSAVLVSGDVMTLKLRTPPTAKIGFLPGQYINLHYKGVTRSYSIANSDESNGIELHVRNVPNGQMSSLIFGELQENTLMRIEGPCGTFFIRESDRPIIFLAGGTGFAPVKSMVEHLIQGKCRREIYIYWGMQYSKDFYSALPQQWSEQHDNVHYIPVVSGDDAEWGGRKGFVHHAVMDDFDSLEFFDIYACGSPVMIDASKKDFMMKNLSVEHFYSDAFTASNNIEDNL”, the “soluble on expression in E. coli” value is “not soluble”.
